# B1: High osmolarity signaling protein SHO1 (Saccharomyces cerevisiae), P40073 (parent)
# chain: MSISSKIRPTPRKPSRMATDHSFKMKKFYADPFAISSISLAIVSWVIAIGGSISSASTNESFPRFTWWGIVYQFLIICSLMLFYCFDLVDHYRIFITTSIAVAFVYNTNSATNLVYADGPKKAAASAGVILLSIINLIWILYYGGDNASPTNRWIDSFSIKGIRPSPLENSLHRARRRGNRNTTPYQNNVYNDAIRDSGYATQFDGYPQQQPSHTNYVSSTALAGFENTQPNTSEAVNLHLNTLQQRINSASNAKETNDNSNNQTNTNIGNTFDTDFSNGNTETTMGDTLGLYSDIGDDNFIYKAKALYPYDADDDDAYEISFEQNEILQVSDIEGRWWKARRANGETGIIPSNYVQLIDGPEEMHR
# partner: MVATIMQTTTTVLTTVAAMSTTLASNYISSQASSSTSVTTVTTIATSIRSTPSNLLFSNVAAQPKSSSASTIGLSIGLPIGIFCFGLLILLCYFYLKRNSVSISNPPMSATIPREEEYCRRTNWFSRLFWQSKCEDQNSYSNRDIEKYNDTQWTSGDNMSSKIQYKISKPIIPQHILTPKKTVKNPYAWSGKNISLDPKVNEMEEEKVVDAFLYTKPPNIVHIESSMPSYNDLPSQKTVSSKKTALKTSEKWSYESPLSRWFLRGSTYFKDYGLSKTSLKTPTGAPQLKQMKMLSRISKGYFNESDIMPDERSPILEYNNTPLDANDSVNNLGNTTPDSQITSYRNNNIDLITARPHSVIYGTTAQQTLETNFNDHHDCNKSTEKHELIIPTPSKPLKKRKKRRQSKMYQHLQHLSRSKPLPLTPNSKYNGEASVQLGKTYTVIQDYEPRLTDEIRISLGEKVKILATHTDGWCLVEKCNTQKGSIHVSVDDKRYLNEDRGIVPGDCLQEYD
# Variants of: B1
# Conditions: with fus1_yeast FUS1, P11710
row,effect of a mutation on the interaction,Variant
1,decreasing interaction,P352A

# From IntAct's records for PubMed 15020407
